In test [1] the target is T1, RANK on mouse bone marrow macrophages (BMMs) (mouse, UniProt O35305 31-625).
T1 sequence (looked up): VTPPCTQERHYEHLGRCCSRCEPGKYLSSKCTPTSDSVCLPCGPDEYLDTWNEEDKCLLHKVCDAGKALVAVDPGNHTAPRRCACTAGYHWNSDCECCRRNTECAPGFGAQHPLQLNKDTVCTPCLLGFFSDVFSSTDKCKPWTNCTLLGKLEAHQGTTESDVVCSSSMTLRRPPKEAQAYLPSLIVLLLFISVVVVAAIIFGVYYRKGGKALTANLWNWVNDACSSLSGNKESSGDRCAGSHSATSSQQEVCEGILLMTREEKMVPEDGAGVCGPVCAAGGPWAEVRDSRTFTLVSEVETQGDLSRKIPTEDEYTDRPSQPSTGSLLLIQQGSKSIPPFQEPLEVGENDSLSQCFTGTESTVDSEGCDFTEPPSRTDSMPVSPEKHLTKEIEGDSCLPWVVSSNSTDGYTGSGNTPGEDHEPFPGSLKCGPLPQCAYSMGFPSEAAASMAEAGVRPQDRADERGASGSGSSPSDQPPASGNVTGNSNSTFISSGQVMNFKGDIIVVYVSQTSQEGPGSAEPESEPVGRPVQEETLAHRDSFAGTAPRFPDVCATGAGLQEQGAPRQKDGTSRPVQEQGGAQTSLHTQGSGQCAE
The experiment in a line: cell-based or functional assay.

In test [2] the target is T2, monomeric OPG (monomeric fragment of OPG) (UniProt O08712 22-197).
T2 chain: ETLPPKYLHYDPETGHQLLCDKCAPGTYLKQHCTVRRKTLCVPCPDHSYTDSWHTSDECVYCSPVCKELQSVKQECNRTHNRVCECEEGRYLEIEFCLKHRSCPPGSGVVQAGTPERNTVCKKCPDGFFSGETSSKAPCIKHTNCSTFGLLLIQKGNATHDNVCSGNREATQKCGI
The experiment in a line: SPR.

Test [3] addresses T3, monomeric RANK (monomeric fragment of RANK) (UniProt O35305 31-214, limits assumed).
T3 construct: The monomeric RANK of the SPR and the RANK-6xHis of the yeast display are treated here as one molecule; also called RANK-6xHis; RANK-6His
T3 sequence (looked up): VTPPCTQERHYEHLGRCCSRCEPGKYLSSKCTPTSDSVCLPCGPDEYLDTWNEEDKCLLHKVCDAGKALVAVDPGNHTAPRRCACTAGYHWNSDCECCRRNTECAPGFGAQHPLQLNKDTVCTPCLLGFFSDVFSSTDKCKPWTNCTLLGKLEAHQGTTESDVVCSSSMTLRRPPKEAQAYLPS
In words: SPR, htRANKL coupled to the chip, monomeric RANK as analyte (FIG. 3C).

Test [4] addresses T2, monomeric OPG (monomeric fragment of …). In words: SPR.
The target in test [5] is T4, monomeric RANK (monomeric fragment of RANK) (UniProt O35305 31-214).
T4 chain: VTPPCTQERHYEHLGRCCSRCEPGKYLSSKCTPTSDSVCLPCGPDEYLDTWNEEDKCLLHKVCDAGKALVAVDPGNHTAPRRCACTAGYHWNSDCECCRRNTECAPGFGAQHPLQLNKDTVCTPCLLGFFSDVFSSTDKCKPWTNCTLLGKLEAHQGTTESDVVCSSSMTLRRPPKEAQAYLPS
The experiment in a line: SPR.

The target in test [6] is T4, monomeric RANK (monomeric fragment of …). The experiment in a line: SPR.
In test [7] the target is T2, monomeric OPG (monomeric fragment of …). In words: yeast surface display titration.
Test [8] addresses T5, monomeric OPG (monomeric fragment of OPG) (UniProt O08712 22-197, limits assumed).
T5 construct: also called OPG-6xHis; unlabeled OPG
T5 sequence (looked up): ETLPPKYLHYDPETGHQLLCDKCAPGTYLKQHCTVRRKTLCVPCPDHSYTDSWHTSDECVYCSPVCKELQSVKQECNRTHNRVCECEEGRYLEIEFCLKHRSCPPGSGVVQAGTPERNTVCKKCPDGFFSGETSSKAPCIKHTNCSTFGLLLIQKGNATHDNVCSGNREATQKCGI
In words: SPR (FIG. 11).

Test [9] addresses T4, monomeric RANK (monomeric fragment of …). In words: yeast surface display titration.
Test [10] has as its target T3, monomeric RANK (monomeric fragment of …). In words: SPR, htRANKL variant coupled to the chip, monomeric RANK as analyte (FIG. 3C).
Test [11] deals with T5, monomeric OPG (monomeric fragment of …). In words: yeast surface display, flow cytometry titration (FIG. 3B).

B1: double-block, RANK^high scRANKL (ligand)
chain: QPFAHLTINAASIPSGSHKVTLSSWYHDRGWAKISNMTLSNGKLRVNQDGFYYLYANISFRGGSHHETSGSVPTDYLHLMVYVVKTSEKIPSSHNLMKGGSTKNWSGNSEFHFYSINVGGFFKLRAGEEISIQVSNPSLLDPDQDATYFGAFKVQDIDGGSGGGSGGGSGQPFAHLTINAASIPSGSHKVTLSSWYHDRGWAKISNMTLSNGKLRVNQDGFYYLYANISFRGGSHHETSGSVPTDYLHLMVYVVKTSEKIPSSHNLMKGGSTKNWSGNSEFHFYSINVGGFFKLRAGEEISIQVSNPSLLDPDQDATYFGAFKVQDIDGGSGGGSGGGSGQPFAHLTINAASIPSGSHKVTLSSWYHDRGWAEISNMTLSNGKLRVNQDGFYYLYANISFRHHETSGSVPTDYLHLMVYVVKTSEKIPSSHNLMKGGSTKNWSGNSEYYFYSINVGGFFKLRAGEEISIQVSNPSLLDPDQDATYFGAFKVQDIDSSGRENLYFQ
As to B1, the “IC50 of inhibition of signaling / osteoclast formation stimulated by wild-type htRANKL (TRAP activity, FIG. 4D)” value in test [1] is approximately 10 nM.

B2: WT-SM htRANKL (homotrimeric mouse RANKL with the solubility mutations C220S/I246E) (ligand)
chain: QPFAHLTINAASIPSGSHKVTLSSWYHDRGWAKISNMTLSNGKLRVNQDGFYYLYANISFRHHETSGSVPTDYLQLMVYVVKTSEKIPSSHNLMKGGSTKNWSGNSEFHFYSINVGGFFKLRAGEEISIQVSNPSLLDPDQDATYFGAFKVQDID
notes: The format differs by assay; also called WT-SM RANKL; WT htRANKL
On to B2, for which the dissociation constant (Kd) is 30.5 nM in test [2]; 30.5 nM in [4]; 1400 nM in [5]; 1400 nM in test [6]; approximately 32.8 nM in test [7]. Further, the “t1/2 (dissociation time)” value in [3] came out at 0.05 min. Besides, in [8], the “fold decrease in binding against WT htRANKL without the solubility mutations” value is approximately 10 fold.

B3: KQF htRANKL (K194E, Q236H, F269Y) (ligand)
chain: QPFAHLTINAASIPSGSHKVTLSSWYHDRGWAEISNMTLSNGKLRVNQDGFYYLYANISFRHHETSGSVPTDYLHLMVYVVKTSEKIPSSHNLMKGGSTKNWSGNSEYHFYSINVGGFFKLRAGEEISIQVSNPSLLDPDQDATYFGAFKVQDID
In test [9], B3 showed a dissociation constant Kd of approximately 23.6 nM.

B4: wild-type homotrimeric RANKL without the solubility mutations (WT htRANKL as compared with WT-SM htRANKL in FIG. 5 and FIG. 11) (ligand)
chain: QPFAHLTINAASIPSGSHKVTLSSWYHDRGWAKISNMTLSNGKLRVNQDGFYYLYANICFRHHETSGSVPTDYLQLMVYVVKTSIKIPSSHNLMKGGSTKNWSGNSEFHFYSINVGGFFKLRAGEEISIQVSNPSLLDPDQDATYFGAFKVQDID
Turning to B4, the Kd in test [2] is 4.75 nM; in test [6], 1230 nM.

B5: KQFH htRANKL (K194E, Q236H, F269Y, H270Y) (ligand)
chain: QPFAHLTINAASIPSGSHKVTLSSWYHDRGWAEISNMTLSNGKLRVNQDGFYYLYANISFRHHETSGSVPTDYLHLMVYVVKTSEKIPSSHNLMKGGSTKNWSGNSEYYFYSINVGGFFKLRAGEEISIQVSNPSLLDPDQDATYFGAFKVQDID
notes: also called RANK^high variant
B5: in test [10], the “fold greater affinity than wild-type htRANKL” value is approximately 500 fold, the “fold longer dissociation time than WT htRANKL” value was determined as 200 fold and the “t1/2 (dissociation time)” value was found to be 11.2 min. This molecule came in with a Kd in test [5] of 3.37 nM. In test [9], this molecule came in with a dissociation constant Kd of approximately 1.4 nM. Further, the binding result in [11] is listed as “no binding”.

B6: single-block, RANK^high scRANKL (ligand)
chain: QPFAHLTINAASIPSGSHKVTLSSWYHDRGWAKISNMTLSNGKLRVNQDGFYYLYANISFRGGSHHETSGSVPTDYLHLMVYVVKTSEKIPSSHNLMKGGSTKNWSGNSEFHFYSINVGGFFKLRAGEEISIQVSNPSLLDPDQDATYFGAFKVQDIDGGSGGGSGGGSGQPFAHLTINAASIPSGSHKVTLSSWYHDRGWAEISNMTLSNGKLRVNQDGFYYLYANISFRHHETSGSVPTDYLHLMVYVVKTSEKIPSSHNLMKGGSTKNWSGNSEYYFYSINVGGFFKLRAGEEISIQVSNPSLLDPDQDATYFGAFKVQDIDGGSGGGSGGGSGQPFAHLTINAASIPSGSHKVTLSSWYHDRGWAEISNMTLSNGKLRVNQDGFYYLYANISFRHHETSGSVPTDYLHLMVYVVKTSEKIPSSHNLMKGGSTKNWSGNSEYYFYSINVGGFFKLRAGEEISIQVSNPSLLDPDQDATYFGAFKVQDIDSSGRENLYFQ
Turning to B6, the “IC50 of inhibition of signaling / osteoclast formation stimulated by wild-type htRANKL (TRAP activity, FIG. 4D)” value in [1] is 0.2 nM.

B7: K/Q (protein)
chain: MRRASRDYGKYLRSSEEMGSGPGVPHEGPLHPAPSAPAPAPPPAASRSMFLALLGLGLGQVVCSIALFLYFRAQMDPNRISEDSTHCFYRILRLHENADLQDSTLESEDTLPDSCRRMKQAFQGAVQKELQHIVGPQRFSGAPAMMEGSWLDVAQRGKPEAQPFAHLTINAASIPSGSHKVTLSSWYHDRGWAEISNMTLSNGKLRVNQDGFYYLYANICFRHHETSGSVPTDYLHLMVYVVKTSIKIPSSHNLMKGGSTKNWSGNSEFHFYSINVGGFFKLRAGEEISIQVSNPSLLDPDQDATYFGAFKVQDID
Regarding B7, the dissociation constant Kd in test [9] was approximately 69.7 nM.

B8: F269Y (protein)
chain: MRRASRDYGKYLRSSEEMGSGPGVPHEGPLHPAPSAPAPAPPPAASRSMFLALLGLGLGQVVCSIALFLYFRAQMDPNRISEDSTHCFYRILRLHENADLQDSTLESEDTLPDSCRRMKQAFQGAVQKELQHIVGPQRFSGAPAMMEGSWLDVAQRGKPEAQPFAHLTINAASIPSGSHKVTLSSWYHDRGWAKISNMTLSNGKLRVNQDGFYYLYANICFRHHETSGSVPTDYLQLMVYVVKTSIKIPSSHNLMKGGSTKNWSGNSEYHFYSINVGGFFKLRAGEEISIQVSNPSLLDPDQDATYFGAFKVQDID
B8 had a Kd in test [7] of approximately 33.3 nM.

B9: K194E (protein)
chain: MRRASRDYGKYLRSSEEMGSGPGVPHEGPLHPAPSAPAPAPPPAASRSMFLALLGLGLGQVVCSIALFLYFRAQMDPNRISEDSTHCFYRILRLHENADLQDSTLESEDTLPDSCRRMKQAFQGAVQKELQHIVGPQRFSGAPAMMEGSWLDVAQRGKPEAQPFAHLTINAASIPSGSHKVTLSSWYHDRGWAEISNMTLSNGKLRVNQDGFYYLYANICFRHHETSGSVPTDYLQLMVYVVKTSIKIPSSHNLMKGGSTKNWSGNSEFHFYSINVGGFFKLRAGEEISIQVSNPSLLDPDQDATYFGAFKVQDID
In the case of B9, the Kd in [7] was approximately 71.7 nM.

B10: H270Y (protein)
chain: MRRASRDYGKYLRSSEEMGSGPGVPHEGPLHPAPSAPAPAPPPAASRSMFLALLGLGLGQVVCSIALFLYFRAQMDPNRISEDSTHCFYRILRLHENADLQDSTLESEDTLPDSCRRMKQAFQGAVQKELQHIVGPQRFSGAPAMMEGSWLDVAQRGKPEAQPFAHLTINAASIPSGSHKVTLSSWYHDRGWAKISNMTLSNGKLRVNQDGFYYLYANICFRHHETSGSVPTDYLQLMVYVVKTSIKIPSSHNLMKGGSTKNWSGNSEFYFYSINVGGFFKLRAGEEISIQVSNPSLLDPDQDATYFGAFKVQDID
For the molecule B10, the figures for the Kd in test [9] and in [7] were approximately 465 nM and approximately 276 nM, respectively.

B11: Q236H (protein)
chain: MRRASRDYGKYLRSSEEMGSGPGVPHEGPLHPAPSAPAPAPPPAASRSMFLALLGLGLGQVVCSIALFLYFRAQMDPNRISEDSTHCFYRILRLHENADLQDSTLESEDTLPDSCRRMKQAFQGAVQKELQHIVGPQRFSGAPAMMEGSWLDVAQRGKPEAQPFAHLTINAASIPSGSHKVTLSSWYHDRGWAKISNMTLSNGKLRVNQDGFYYLYANICFRHHETSGSVPTDYLHLMVYVVKTSIKIPSSHNLMKGGSTKNWSGNSEFHFYSINVGGFFKLRAGEEISIQVSNPSLLDPDQDATYFGAFKVQDID
As for B11, the equilibrium dissociation constant (Kd) in [9] is approximately 346 nM.

The record behind these values is US20200199196A1 (WASHINGTON UNIVERSITY, published 2020).
